According to patent US20200095340A1:

B1: anti-DLL3 trispecific protein 2E011 (protein, part only; not given: CD3 binder and albumin binder, part only)
chain, part: EVQLVESGGGLVQPGGSLTLSCVASGSTSSINAIGWYRRAPGKQRELVAGISSDGSSVYADSVKGRFTISRDNAKNSVYLQMNSLRAEDTAVYYCYYFRRVSGSSMRYWGQGTLVTVSSGGGGSGGGSGGGGSGGGSHHHHHH
B2: anti-DLL3 trispecific protein 1A012 (protein, part only; not given: CD3 binder and albumin binder, part only)
chain, part: EVQLVESGGGLVQPGGSLTLSCVASGSTSSINAMAWYRRAPGKQRELVAGISSDGSKVYSDSVKGRFTISRDNAKNSVYLQMNSLRAEDTAVYYCYYFRTVLGSSMRYWGQGTLVTVSSGGGGSGGGSGGGGSGGGSHHHHHH
B3: anti-DLL3 trispecific protein 2H02 (protein, part only; not given: anti-CD3 and anti-albumin domains, part only)
chain, part: EVQLVESGGGLVQPGGSLTLSCVASGSTSSINAMAWYRRAPGKQRELAAGISSDGSKVYADSVKGRFTISRDNAKNSVYLQMNSLRAEDTAVYYCYYFHTVSGSSMRYWGQGTLVTVSSGGGGSGGGSGGGGSGGGSHHHHHH
B4: anti-DLL3 trispecific protein 1C010 (protein, part only; not given: CD3 binder and albumin binder, part only)
chain, part: EVQLVESGGGLVQPGGSLTLSCVASGSTSRINAMGWYRRAPGKQRELVAGVSSDGSKVYADSVKGRFTISRDNAKNSVYLQMNSLRAEDTAVYYCYYFRTVSGSSMSYWGQGTLVTVSSGGGGSGGGSGGGGSGGGSHHHHHH
B5: anti-DLL3 trispecific protein 1A05 (protein, part only; not given: CD3 fragment and albumin sdAb, part only)
chain, part: EVQLVESGGGLVQPGGSLTLSCVASGSPSSINAMGWYRRAPGKQRELSAGISSDGSKVYADSVKGRFTISRDNAKNSVYLQMNSLRAEDTAVYYCYYFRTVRGSSMSYWGQGTLVTVSSGGGGSGGGSGGGGSGGGSHHHHHH
B6: anti-DLL3 trispecific protein 2E05 (protein, part only; not given: CD3 fragment and albumin sdAb, part only)
chain, part: EVQLVESGGGLVQPGGSLTLSCVASGSPSSINAYGWYRRAPGKQRELVAGISSDGSKVYSDSVKGRFTISRDNAKNSVYLQMNSLRAEDTAVYYCYYFRTVSGSSMSYWGQGTLVTVSSGGGGSGGGSGGGGSGGGSHHHHHH
B7: anti-DLL3 trispecific protein 1F02 (protein, part only; not given: CD3 binder and albumin binder, part only)
chain, part: EVQLVESGGGLVQPGGSLTLSCVASGSTSSINAMAWYRRAPGKQRELAAGISSDQSKVYADSAKGRFTISRDNAKNSVYLQMNSLRAEDTAVYYCYYFRTVSGSSMSYWGQGTLVTVSSGGGGSGGGSGGGGSGGGSHHHHHH
B8: anti-DLL3 trispecific protein 1A011 (protein, part only; not given: anti-CD3 and anti-albumin domains, part only)
chain, part: EVQLVESGGGLVQPGGSLTLSCVASGSTSSINAIGWYRRAPGKQRELVAGISSDGSKVYIDSVKGRFTISRDNAKNSVYLQMNSLRAEDTAVYYCYYFRTVSGSSYRYWGQGTLVTVSSGGGGSGGGSGGGGSGGGSHHHHHH
B9: anti-DLL3 trispecific protein 2G08 (protein, part only; not given: anti-CD3 and anti-albumin domains, part only)
chain, part: EVQLVESGGGLVQPGGSLTLSCVASGSTSYINAMGWYRRAPGKQRELVAGISSDGSKVYADSVKGRFTISRDNAKNSVYLQMNSLRAEDTAVYYCYYFRTVSGQSMGYWGQGTLVTVSSGGGGSGGGSGGGGSGGGSHHHHHH
B10: anti-DLL3 trispecific protein 2A011 (protein, part only; not given: anti-CD3 and anti-albumin domains, part only)
chain, part: EVQLVESGGGLVQPGGSLTLSCVASGSTSSINAIGWYRRAPGKQRELVAGISSDGSKVYSDSVKGRFTISRDNAKNSVYLQMNSLRAEDTAVYYCYYFRPVSGSSMRYWGQGTLVTVSSGGGGSGGGSGGGGSGGGSHHHHHH
B11: anti-DLL3 trispecific protein 1E011 (protein, part only; not given: anti-CD3 and anti-albumin domains, part only)
chain, part: EVQLVESGGGLVQPGGSLTLSCVASGNTSSINAMGWYRRAPGKQRELVAGISSDGSKVYYDSVKGRFTISRDNAKNSVYLQMNSLRAEDTAVYYCYYFRTVRGSSQRYWGQGTLVTVSSGGGGSGGGSGGGGSGGGSHHHHHH
B12: anti-DLL3 trispecific protein 1C01 (protein, part only; not given: anti-CD3 and anti-albumin domains, part only)
chain, part: EVQLVESGGGLVQPGGSLTLSCVASGSTSSINAMGWYRRAPGKQRELVAGISSDGSKVYRDSVKGRFTISRDNAKNSVYLQMNSLRAEDTAVYYCYYFRTVSGSSMGYWGQGTLVTVSSGGGGSGGGSGGGGSGGGSHHHHHH
B13: anti-DLL3 trispecific protein 1D011 (protein, part only; not given: anti-CD3 and anti-albumin domains, part only)
chain, part: EVQLVESGGGLVQPGGSLTLSCVASGSTSSINAMAWYRRAPGKQRELVAGISSDNSKVYADSVKGRFTISRDNAKNSVYLQMNSLRAEDTAVYYCYYFRTVSGHSMRYWGQGTLVTVSSGGGGSGGGSGGGGSGGGSHHHHHH
B14: anti-DLL3 trispecific protein 2D012 (protein, part only; not given: anti-CD3 fragment and anti-albumin sdAb, part only)
chain, part: EVQLVESGGGLVQPGGSLTLSCVASGKTSSINAMGWYRRAPGKQRELVAGISSDGSKVYTDSVKGRFTISRDNAKNSVYLQMNSLRAEDTAVYYCYYFRTRSGSSMRYWGQGTLVTVSSGGGGSGGGSGGGGSGGGSHHHHHH
B15: anti-DLL3 trispecific protein 2E010 (protein, part only; not given: anti-CD3 and anti-albumin domains, part only)
chain, part: EVQLVESGGGLVQPGGSLTLSCVASGSTSSINAMAWYRRAPGKQRELVAGISSDGSKVYADSVKGRFTISRDNAKNSVYLQMNSLRAEDTAVYYCYYFHTVSGSSMRYWGQGTLVTVSSGGGGSGGGSGGGGSGGGSHHHHHH
B16: anti-DLL3 trispecific protein 2C02 (protein, part only; not given: CD3 binder and albumin binder, part only)
chain, part: EVQLVESGGGLVQPGGSLTLSCVASGSTSSINAVGWYRRAPGKQRELVAGISSDGSKVYVDSVKGRFTISRDNAKNSVYLQMNSLRAEDTAVYYCYYFRTVYGSSMRYWGQGTLVTVSSGGGGSGGGSGGGGSGGGSHHHHHH
B17: anti-DLL3 trispecific protein 1E09 (protein, part only; not given: CD3 fragment and albumin sdAb, part only)
chain, part: EVQLVESGGGLVQPGGSLTLSCVASGSTSSINAMAWYRRAPGKQRELVAGISSDGSKVYTDSVKGRFTISRDNAKNSVYLQMNSLRAEDTAVYYCYYFRTRSGSSMRYWGQGTLVTVSSGGGGSGGGSGGGGSGGGSHHHHHH
B18: anti-DLL3 trispecific protein 1H012 (protein, part only; not given: anti-CD3 fragment and anti-albumin sdAb, part only)
chain, part: EVQLVESGGGLVQPGGSLTLSCVASGSTSSINAMGWYRRAPGKQRELVAGISSDGSKVYVDSVKGRFTISRDNAKNSVYLQMNSLRAEDTAVYYCYYFRTVSGSSMPYWGQGTLVTVSSGGGGSGGGSGGGGSGGGSHHHHHH
B19: anti-DLL3 trispecific protein 1F011 (protein, part only; not given: anti-CD3 fragment and anti-albumin sdAb, part only)
chain, part: EVQLVESGGGLVQPGGSLTLSCVASGSTSSINAIGWYRRAPGKQRELVAGISSDGSKVYADSVKGRFTISRDNAKNSVYLQMNSLRAEDTAVYYCYYFRTVKGSSMRYWGQGTLVTVSSGGGGSGGGSGGGGSGGGSHHHHHH
B20: anti-DLL3 trispecific protein 2E01 (protein, part only; not given: anti-CD3 and anti-albumin domains, part only)
chain, part: EVQLVESGGGLVQPGGSLTLSCVASGSTSSINAMGWYRRAPFKQGELPAGISPDGTKAYADSAKVRFTISRDNAKNSVYLQMNSLRAEDTAVYYCYYFHTVCGTSMGYWGQGTLVTVSSGGGGSGGGSGGGGSGGGSHHHHHH
B21: anti-DLL3 trispecific protein 3H011 (protein, part only; not given: CD3 fragment and albumin sdAb, part only)
chain, part: EVQLVESGGGLVQPGGSLTLSCAASGSSVKFLSMAWYRQAPGKKRELVAGISADGSTVYIDSVKGRFTISRDNAKNSVYLQMNSLRAEDTAVYYCYAYRWPTRYTYWGQGTLVTVSSGGGGSGGGSGGGGSGGGSHHHHHH
B22: anti-DLL3 trispecific protein 4H011 (protein, part only; not given: anti-CD3 and anti-albumin domains, part only)
chain, part: EVQLVESGGGLVQPGGSLTLSCAASGSSVSRLSMAWYRQAPGKKRELVAGISVDGSTDYIDSVKGRFTISRDNAKNSVYLQMNSLRAEDTAVYYCYAYRWTTRLTYWGQGTLVTVSSGGGGSGGGSGGGGSGGGSHHHHHH
B23: anti-DLL3 trispecific protein 4D09 (protein, part only; not given: CD3 binder and albumin binder, part only)
chain, part: EVQLVESGGGLVQPGGSLTLSCAASGSSVKFLSMAWYRQAPGKKRELVAGISADGSTDYILSVKGRFTISRDNAKNSVYLQMNSLRAEDTAVYYCYAYEWTTRYTYWGQGTLVTVSSGGGGSGGGSGGGGSGGGSHHHHHH
B24: anti-DLL3 trispecific protein 3F010 (protein, part only; not given: CD3 fragment and albumin sdAb, part only)
chain, part: EVQLVESGGGLVQPGGSLTLSCAASYSSVSRLSMAWYRQAPGKKRELVAGISADGSTVYIDSVKGRFTISRDNAKNSVYLQMNSLRAEDTAVYYCYAYRWTTRNTYWGQGTLVTVSSGGGGSGGGSGGGGSGGGSHHHHHH
B25: anti-DLL3 trispecific protein 3C03 (protein, part only; not given: anti-CD3 fragment and anti-albumin sdAb, part only)
chain, part: EVQLVESGGGLVQPGGSLTLSCAASGSSVRFLSMAWYRQAPGKKRELVAGISRDGSTVYIDSVKGRFTISRDNAKNSVYLQMNSLRAEDTAVYYCYAYRWTTRGTYWGQGTLVTVSSGGGGSGGGSGGGGSGGGSHHHHHH
B26: anti-DLL3 trispecific protein 4D01 (protein, part only; not given: CD3 binder and albumin binder, part only)
chain, part: EVQLVESGGGLVQPGGSLTLSCAASGSSVRFLSMAWYRQAPGKKRELVAGISADGSTVYIDSVKGRFTISRDNAKNSVYLQMNSLRAEDTAVYYCYAYRWTTRRTYWGQGTLVTVSSGGGGSGGGSGGGGSGGGSHHHHHH
B27: anti-DLL3 trispecific protein 4B07 (protein, part only; not given: anti-CD3 fragment and anti-albumin sdAb, part only)
chain, part: EVQLVESGGGLVQPGGSLTLSCAASGSSVGFLSMAWYRQAPGKKRELVAGISADGSTVYIDSVKGRFTISRDNAKNSVYLQMNSLRAEDTAVYYCYAYRWTTRYTYWGQGTLVTVSSGGGGSGGGSGGGGSGGGSHHHHHH
B28: anti-DLL3 trispecific protein 4B011 (protein, part only; not given: CD3 fragment and albumin sdAb, part only)
chain, part: EVQLVESGGGLVQPGGSLTLSCAASGSSVTFLSMAWYRQAPGKKRELVAGISADGSTVYIDSVKGRFTISRDNAKNSVYLQMNSLRAEDTAVYYCYAYRWTTRGTYWGQGTLVTVSSGGGGSGGGSGGGGSGGGSHHHHHH
B29: anti-DLL3 trispecific protein 4E02 (protein, part only; not given: CD3 binder and albumin binder, part only)
chain, part: EVQLVESGGGLVQPGGSLTLSCAASGSQVSFLSMAWYRQAPGKKRELVAGISADGSTVYIDSVKGRFTISRDNAKNSVYLQMNSLRAEDTAVYYCYAYRWSTRYTYWGQGTLVTVSSGGGGSGGGSGGGGSGGGSHHHHHH
B30: anti-DLL3 trispecific protein 3C04 (protein, part only; not given: anti-CD3 and anti-albumin domains, part only)
chain, part: EVQLVESGGGLVQPGGSLTLSCAASGSHVSFLSMAWYRQAPGKKRELVAGISADGPTDYIDSVKGRFTISRDNAKNSVYLQMNSLRAEDTAVYYCYAYRWDTRYTYWGQGTLVTVSSGGGGSGGGSGGGGSGGGSHHHHHH
B31: anti-DLL3 trispecific protein 4G01 (protein, part only; not given: CD3 binder and albumin binder, part only)
chain, part: EVQLVESGGGLVQPGGSLTLSCAASGSSVRFLSMAWYRQAPGKKRELVAGISADGSTVYIDSVKGRFTISRDNAKNSVYLQMNSLRAEDTAVYYCYAYRWPTRYTYWGQGTLVTVSSGGGGSGGGSGGGGSGGGSHHHHHH

Target: biotinylated human DLL3 protein expressed as a human IgG1 fusion protein (human) (UniProt Q9NYJ7)
Sequence (Q9NYJ7 other isoform, or with tags, fused parts or gaps): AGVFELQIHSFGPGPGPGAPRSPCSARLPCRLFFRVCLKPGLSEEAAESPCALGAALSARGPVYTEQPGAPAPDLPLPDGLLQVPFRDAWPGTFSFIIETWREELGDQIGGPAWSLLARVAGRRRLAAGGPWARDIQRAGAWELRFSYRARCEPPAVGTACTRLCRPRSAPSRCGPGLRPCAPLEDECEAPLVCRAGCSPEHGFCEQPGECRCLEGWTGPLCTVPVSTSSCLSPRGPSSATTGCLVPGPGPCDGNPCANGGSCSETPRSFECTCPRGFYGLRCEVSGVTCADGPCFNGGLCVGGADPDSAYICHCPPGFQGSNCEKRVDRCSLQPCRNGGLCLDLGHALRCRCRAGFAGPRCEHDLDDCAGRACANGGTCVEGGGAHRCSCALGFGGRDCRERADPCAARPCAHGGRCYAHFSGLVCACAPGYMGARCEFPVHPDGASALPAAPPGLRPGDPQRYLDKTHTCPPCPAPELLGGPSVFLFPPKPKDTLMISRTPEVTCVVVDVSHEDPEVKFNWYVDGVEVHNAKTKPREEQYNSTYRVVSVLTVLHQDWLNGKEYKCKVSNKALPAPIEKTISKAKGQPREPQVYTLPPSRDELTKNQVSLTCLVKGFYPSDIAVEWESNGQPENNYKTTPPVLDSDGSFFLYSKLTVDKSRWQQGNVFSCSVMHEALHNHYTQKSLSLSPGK
Experiment: Octet BLI; biotinylated huDLL3-IgG1 fusion on streptavidin tips; single 50 nM; conditioned medium

Binder	Kd [nM]
B1	2.4
B2	4.9
B3	4.4
B4	2.5
B5	4
B6	3.9
B7	4
B8	3.7
B9	4.1
B10	4
B11	2.7
B12	4.3
B13	4.4
B14	4.9
B15	4
B16	4.1

Binder	Kd [nM]
B17	4.4
B18	3.5
B19	5
B20	4.1
B21	2.7
B22	4.5
B23	4.7
B24	4.4
B25	4.9
B26	3.7
B27	4.3
B28	3.9
B29	3.8
B30	4.5
B31	3.6
